The results in this text go back to patent publication US20100196385A1 (AstraZeneca / MedImmune, published 2010).

Changes are numbered by the printed parent chain.

Test [1] has as its target T1, human Dll1 (human, UniProt O00548 18-723).
T1 construct: whole, on cells
T1 sequence (looked up): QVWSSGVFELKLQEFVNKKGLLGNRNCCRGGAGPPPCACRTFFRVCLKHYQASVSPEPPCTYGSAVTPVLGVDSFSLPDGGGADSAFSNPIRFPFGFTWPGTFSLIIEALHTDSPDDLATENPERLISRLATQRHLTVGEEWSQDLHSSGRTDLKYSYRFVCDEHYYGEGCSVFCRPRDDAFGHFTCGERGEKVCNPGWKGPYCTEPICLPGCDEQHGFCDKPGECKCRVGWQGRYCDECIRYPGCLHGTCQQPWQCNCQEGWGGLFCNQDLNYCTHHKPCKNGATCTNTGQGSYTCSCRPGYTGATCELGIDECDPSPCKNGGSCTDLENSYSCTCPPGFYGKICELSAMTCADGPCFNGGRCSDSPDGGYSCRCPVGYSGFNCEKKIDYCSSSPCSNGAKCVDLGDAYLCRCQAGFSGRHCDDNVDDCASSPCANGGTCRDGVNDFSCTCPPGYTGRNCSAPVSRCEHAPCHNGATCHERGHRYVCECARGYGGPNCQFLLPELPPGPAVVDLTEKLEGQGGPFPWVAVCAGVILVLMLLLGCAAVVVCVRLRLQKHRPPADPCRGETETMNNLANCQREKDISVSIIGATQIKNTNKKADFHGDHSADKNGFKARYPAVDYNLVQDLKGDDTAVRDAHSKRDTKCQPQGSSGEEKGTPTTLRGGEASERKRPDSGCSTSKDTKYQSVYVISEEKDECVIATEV
The experiment in a line: FACS, 15 µg/ml, 293T cells with human Dll1. The essentials: (§1)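 Flow cytometry; 1 h antibody staining at 4 °C in PBS/2% FCS. Value = geometric mean fluorescence shift over mock-transfected cells.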
In general terms: Flow cytometry measures light scatter and fluorescence of single cells or particles in a stream.

Test [2] concerns the target T2, human Jagged1 (human, UniProt P78504 34-1218).
T2 construct: whole, on cells
In words: FACS, 5 µg/ml, 293T cells with human Jagged1. The essentials: as §1

Test [3] addresses T1, human Dll1. In words: FACS, 15 µg/ml, 293T cells with human Dll1 vs mock. The essentials: as §1
The target in test [4] is T2, human Jagged1. The experiment in a line: FACS, 5 µg/ml, 293T cells with human Jagged1 vs mock. The essentials:
as §1

Test [5] has as its target T2, human Jagged1. In words: FMAT, hybridoma supernatant, 293T cells with human Jagged1. The essentials: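 Transfected 293T cells (3000 expressing plus 15000 mock-transfected per well), in PBS with 2% FBS, were mixed with hybridoma supernatant and Cy5 goat anti-human IgG Fc (750 ng/ml final). After 3 h at room temperature, binding was read by FMAT fluorescence. Notch1/Fc served as positive control for DLL4 and Notch3/Fc for Jagged1.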

In test [6] the target is T3, full length human DLL4 (human, UniProt Q9NR61 27-685).
T3 construct: whole, on cells; also called native DLL4 expressed in HEK293 cells
In words: FMAT competition, purified antibody vs Alexa-647 human Notch1/Fc, 293T cells with human DLL4. The essentials: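 293T cells expressing full-length DLL4, mixed with untransfected cells, were preincubated 1 h at 4 °C with serially diluted purified antibody (from 5 μg/ml). Alexa-647 human Notch1/Fc (100 ng/ml stock) was then added for 3 h at 4 °C; bound Notch1/Fc measured by FMAT fluorescence.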

Test [7] has as its target T3, full length human DLL4. In words: FMAT, hybridoma supernatant, 293T cells with human DLL4; FMAT, hybridoma supernatant, native full length human DLL4 on live 293T cells, room temperature. Here is the method: Cells diluted in PBS containing 2% FBS were seeded at a density of 3000 expressing and 15000 mock transfected cells per well in 384 well plates (Corning Costar, catalog #3712). Immediately after plating, 15 or 20 μl/well of hybridoma supernatants and 10 μl/well of secondary antibody (Goat anti-human IgG Fc Cy5, final concentration 750 ng/ml) were added and plates incubated for 3 h at room temperature prior to reading the fluorescence on the FMAT 8200 instrument (Applied Biosystems). The binding of human Notch1/Fc chimera (R&D systems, catalog #3647-TK), diluted 1:2 from 2.86 μg/ml was used as a positive control for DLL4 and human Notch3/Fc chimera diluted from 10 μg/ml was used a positive control for binding to Jagged1. Results for 12 hybridoma supernatants showing binding of hybridoma supernatants to human/cynomolgus monkey DLL4 and human Jagged are shown in Table 3.

Test [8] addresses T3, full length human DLL4. In words: FMAT competition, supernatant vs Alexa-647 human Notch1/Fc, 293T cells with human DLL4; FMAT competition with Alexa-647 human Notch1/Fc, native human DLL4 on 293T cells, 4 C, n = 2. Here is the method:
(§2) Transfected and untransfected 239T cells were reconstituted in PBS containing 2% FCS and 5000 transfected and 17500 non-transfected cells were plated in 20 μl into wells of a 384-well tissue culture plate (Corning Costar, catalog #3712). Subsequently, 20 μl of hybridoma supernatant was added and plates were incubated at 4° C. for 1 h, at which time 20 μl of Alexa-647 labeled human Notch1/Fc was added at a final concentration of 6.7 ng/ml. After a further 3 h incubation at 4° C., the amount of bound Notch1/Fc was determined by reading the fluorescence in each well using an FMAT 8200 instrument (Applied Biosystems). Results are expressed as % inhibitions with the minimum inhibition in the assay being determined by the effects of non-DLL4 binding supernatants prepared in a similar way as described in example 2, and the maximum inhibition being defined as the signal obtained in the presence of a saturating concentration of unlabeled Notch1/Fc. N.T.=not tested

Test [9] has as its target T3, full length human DLL4. The experiment in a line: FMAT competition, supernatant vs Alexa-647 human Notch1/Fc, 293T cells with human DLL4; FMAT competition with Alexa-647 human Notch1/Fc, native human DLL4 on 293T cells, 4 C, n = 3. Here is the method: as §2
In test [10] the target is T3, full length human DLL4. In words: FACS titration, HEK293 cells with human DLL4. Here is the method:
The binding affinities of the purified antibodies for DLL4 was estimated using is both FACS and BIAcore techniques. […] The cells were then washed and incubated with goat anti-human IgG-Fc-Cy5+5 μg/mL 7-Amino-Actinomycin (7AAD) for 30 minutes at 4° C.
In this equation, F=mean fluorescence, LT=total molecular mAb concentration, P′=proportionality constant that relates arbitrary fluorescence units to bound mAb, M=cellular concentration in molarity, n=number of receptors per cell, B=background signal, and KD=equilibrium dissociation constant. For each mAb titration curve an estimate for KD is obtained as P′, n, B, and KD are allowed to float freely in the nonlinear analysis. Table 20 summarizes the affinity estimates for the anti-DLL4 antibodies for human and cynomolgus monkey DLL4 derived using the methodology described above

Test [11] deals with T4, full length mouse DLL4 (mouse, UniProt Q9JI71 27-686).
T4 construct: whole, on cells
In words: FACS competition vs rat Notch1/Fc, HEK293 cells with mouse DLL4. Here is the method: (§3) Further experiments were performed on selected antibodies using HEK293 cells that were stably transfected with either human, mouse or cynomolgus monkey DLL4 using retroviral constructs. In these experiments, anti-DLL4 antibodies (final concentration: 10-0.01 μg/ml) diluted in PBS containing 2% FCS were added to DLL4-expressing HEK 293 cells (50000 cells/well diluted in PBS containing 2% FCS) and incubated for 1 h at 4° C. Subsequently, Alexa-647 labeled human, rat or APC labeled mouse Notch1/Fc (e.g. R&D Systems, catalog #3647-TK-050, 1057-TK-050, 5267-TK-050, respectively) was added at a final concentration of 0.01-0.5 μg/ml and plates were incubated for a further 2 h at 4° C. prior to washing and reading on a FACSCalibur instrument.

Test [12] concerns the target T3, full length human DLL4. The experiment in a line: FACS competition vs human Notch1/Fc, HEK293 cells with human DLL4. Here is the method: as §3
Test [13] concerns the target T5, human soluble DLL4 (R&D systems catalog #1056-D4-050) (human, UniProt Q9NR61 27-524).
T5 construct: Catalog number as printed; perhaps the same product as #1506-D4; also called antigen DLL4
In words: Biacore T100, antibody immobilised, soluble human DLL4 as analyte. Here is the method:
For Biacore analysis, each purified anti-DLL4 antibody was immobilized on a CM5 sensor chip within a T100 using standard amine coupling. Immobilization levels were kept below 200 RU. The concentration of DLL4 was determined by UV-VIS spectroscopy using a molar absorptivity at 280 nm of 110, 440 M⁻¹cm⁻¹, which was calculated from the sequence of the protein using a method developed by Pace et al. (G. R. Grimsley and C. N. Pace (2003) in Current Protocols in Protein Science (John Wiley & Sons, Inc.), 3.1.1-3.1.9). The antigen DLL4 (R&D systems; human catalog #1056-D4-050 or mouse, catalog #1389-D4-050) was diluted to a starting concentration of 32-64 nM and tested in a 3-fold dilution series in triplicate. The running buffer contained HBS-P with 0.1 mg/ml BSA and binding responses were collected at 23° C. Bound complexes were regenerated with a 15 s pulse of 10 mM of sodium hydroxide. The response data were globally fitted with a simple 1:1 interaction model and Table 20 summarizes the kₐ, kd and KD estimates obtained for the anti-DLL4 antibodies when binding to human soluble DLL4 was assessed.
Background: Surface plasmon resonance follows binding to a sensor surface in real time, without labels.

The % inhibition is the change of the read-out against control, counted positive when it falls. Broadly, the IC50 is the concentration that gives 50% inhibition. For orientation: Kd means the free concentration of one partner at which half of the binding sites on the other are occupied at equilibrium, for simple one-to-one binding. A lower Kd goes with tighter binding. The term koff denotes the first-order rate constant of dissociation. A high value points to a short-lived complex. Usually kon stands for the second-order rate constant of association.

T5 sequence (Q9NR61 27-524 limits assumed): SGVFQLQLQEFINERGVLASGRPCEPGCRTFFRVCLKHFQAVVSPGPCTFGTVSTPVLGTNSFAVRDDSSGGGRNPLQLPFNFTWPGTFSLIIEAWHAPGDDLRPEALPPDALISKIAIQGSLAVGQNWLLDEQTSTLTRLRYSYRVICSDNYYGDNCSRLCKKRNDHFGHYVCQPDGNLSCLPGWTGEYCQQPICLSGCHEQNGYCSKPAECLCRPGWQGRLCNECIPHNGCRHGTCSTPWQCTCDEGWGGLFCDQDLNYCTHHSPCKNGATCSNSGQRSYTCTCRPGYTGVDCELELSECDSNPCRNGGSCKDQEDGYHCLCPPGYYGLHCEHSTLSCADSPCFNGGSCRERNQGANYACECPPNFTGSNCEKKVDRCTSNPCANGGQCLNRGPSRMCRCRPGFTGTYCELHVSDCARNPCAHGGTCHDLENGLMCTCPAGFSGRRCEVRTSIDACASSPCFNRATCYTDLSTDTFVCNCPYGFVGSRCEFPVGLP
T3 sequence (Q9NR61 27-685): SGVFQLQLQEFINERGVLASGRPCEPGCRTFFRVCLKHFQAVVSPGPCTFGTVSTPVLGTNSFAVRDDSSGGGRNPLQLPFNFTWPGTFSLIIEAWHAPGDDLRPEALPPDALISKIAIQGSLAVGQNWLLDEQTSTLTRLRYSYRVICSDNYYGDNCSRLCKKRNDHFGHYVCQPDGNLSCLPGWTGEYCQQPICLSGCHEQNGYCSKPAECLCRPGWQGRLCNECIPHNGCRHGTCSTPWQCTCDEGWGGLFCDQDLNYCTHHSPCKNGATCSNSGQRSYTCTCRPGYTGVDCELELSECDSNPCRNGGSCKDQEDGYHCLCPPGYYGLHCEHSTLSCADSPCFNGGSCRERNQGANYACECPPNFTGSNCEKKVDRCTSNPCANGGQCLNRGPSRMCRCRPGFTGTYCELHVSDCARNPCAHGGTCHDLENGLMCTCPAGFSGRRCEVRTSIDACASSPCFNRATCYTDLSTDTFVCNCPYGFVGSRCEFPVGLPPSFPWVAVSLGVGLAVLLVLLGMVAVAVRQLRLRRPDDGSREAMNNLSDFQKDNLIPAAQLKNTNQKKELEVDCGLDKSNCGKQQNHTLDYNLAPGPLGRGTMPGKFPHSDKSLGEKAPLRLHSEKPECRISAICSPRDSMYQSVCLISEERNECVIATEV
T2 sequence (P78504 34-1218): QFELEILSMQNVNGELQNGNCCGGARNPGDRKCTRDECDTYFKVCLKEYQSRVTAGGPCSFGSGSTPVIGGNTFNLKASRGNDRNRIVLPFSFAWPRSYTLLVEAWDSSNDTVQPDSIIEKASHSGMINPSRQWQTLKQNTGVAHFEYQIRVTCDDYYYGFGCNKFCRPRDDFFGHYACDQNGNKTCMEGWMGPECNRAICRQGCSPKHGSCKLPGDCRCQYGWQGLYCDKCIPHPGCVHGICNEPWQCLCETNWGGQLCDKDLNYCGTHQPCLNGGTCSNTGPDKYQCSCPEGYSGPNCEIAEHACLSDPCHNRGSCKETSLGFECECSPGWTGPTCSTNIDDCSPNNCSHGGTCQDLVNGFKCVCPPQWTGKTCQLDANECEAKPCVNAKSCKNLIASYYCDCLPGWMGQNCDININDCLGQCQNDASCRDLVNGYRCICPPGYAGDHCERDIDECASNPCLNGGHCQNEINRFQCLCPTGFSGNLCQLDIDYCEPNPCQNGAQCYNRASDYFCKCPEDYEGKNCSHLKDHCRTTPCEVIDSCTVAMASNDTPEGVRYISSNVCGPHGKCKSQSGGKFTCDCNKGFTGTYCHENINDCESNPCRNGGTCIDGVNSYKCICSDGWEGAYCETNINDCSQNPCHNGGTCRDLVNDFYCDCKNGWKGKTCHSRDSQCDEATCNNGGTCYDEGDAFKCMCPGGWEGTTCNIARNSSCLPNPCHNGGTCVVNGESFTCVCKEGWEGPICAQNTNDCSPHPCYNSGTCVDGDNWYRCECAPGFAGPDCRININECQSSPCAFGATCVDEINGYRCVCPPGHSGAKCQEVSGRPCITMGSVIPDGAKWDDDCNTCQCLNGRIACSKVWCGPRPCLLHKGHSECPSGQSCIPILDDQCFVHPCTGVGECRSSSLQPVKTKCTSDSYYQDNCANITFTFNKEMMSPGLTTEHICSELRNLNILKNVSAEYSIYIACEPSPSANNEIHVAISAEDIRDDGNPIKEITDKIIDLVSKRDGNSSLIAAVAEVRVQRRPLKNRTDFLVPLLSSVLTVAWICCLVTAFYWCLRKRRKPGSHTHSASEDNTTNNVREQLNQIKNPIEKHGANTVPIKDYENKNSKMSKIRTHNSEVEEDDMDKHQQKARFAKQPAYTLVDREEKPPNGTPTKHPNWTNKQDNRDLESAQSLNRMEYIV
T4 sequence (Q9JI71 27-686): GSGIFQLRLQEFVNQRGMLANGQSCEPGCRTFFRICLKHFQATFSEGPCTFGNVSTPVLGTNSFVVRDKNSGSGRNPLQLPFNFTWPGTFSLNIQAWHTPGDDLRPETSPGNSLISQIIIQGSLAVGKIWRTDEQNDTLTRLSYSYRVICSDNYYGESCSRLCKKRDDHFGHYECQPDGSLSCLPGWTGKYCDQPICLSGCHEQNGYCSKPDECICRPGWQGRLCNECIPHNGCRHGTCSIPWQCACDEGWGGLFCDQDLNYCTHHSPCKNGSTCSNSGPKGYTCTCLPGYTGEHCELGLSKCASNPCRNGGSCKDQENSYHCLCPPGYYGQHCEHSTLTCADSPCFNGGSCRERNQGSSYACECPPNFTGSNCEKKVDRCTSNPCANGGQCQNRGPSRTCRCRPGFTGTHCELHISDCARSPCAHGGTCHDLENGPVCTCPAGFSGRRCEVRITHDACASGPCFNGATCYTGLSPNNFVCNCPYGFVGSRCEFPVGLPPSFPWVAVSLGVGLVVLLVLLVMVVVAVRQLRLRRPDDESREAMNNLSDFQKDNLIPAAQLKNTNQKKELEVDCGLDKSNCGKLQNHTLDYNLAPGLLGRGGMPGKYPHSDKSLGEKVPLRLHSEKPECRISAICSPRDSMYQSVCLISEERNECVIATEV

B1: 20G8 (antibody, IgG4, V domains shown)
VH: QVQLVQSGAEVKKPGASVKVSCKASGYTFTSYGISWVRQAPGQGLEWMGWISVYNGNTNYAQKLQGRVTMTTDTSTSTAYMEVRSLRSDDTAVYYCARDRVPRIPRTTEAFDIWGRGTMVTVCS
VL: QSVLTQPPSASGTPGQRVTISCSGSSSNIGSYYVYWYQQLPGTAPKLLIYRDNQRPSGVPDRFSGSKSGTSASLAIRGLRSDDEADYYCAAWDDSLSGHWVFGGGTKLTVL
notes: Fully human; also used where no isotype is printed
For B1, in test [1], the “Dll1/293T X Geo mean” value stood at 40. Besides, the “Jagged1/293T X Geo mean” value in test [2] amounted to 16. In addition, the Dll1/mock ratio in test [3] is 1.34. The Jagged1/mock ratio in test [4] came to 1.12. In test [5], this molecule had a Count of 3, an FL1 of 1500 and an FL1 x count of 4490. Moreover, in test [6], the “% inhibition at 0.020 nM” value was -5%, the “% inhibition at 0.070 nM” value is 3%, the “% inhibition at 0.21 nM” value was -4% and the “% inhibition at 0.62 nM” value was -14%. In addition, in test [6], the “% inhibition at 1.9 nM” value was determined as 29%, the “% inhibition at 5.6 nM” value came to 114%, the “% inhibition at 16.7 nM” value came out at 115% and the half-maximal inhibitory concentration (IC50) was 2.02 nM. Moreover, in test [7], the Count is 182, the FL1 was determined as 10500 and the FL1 x count was found to be 1.9e+06. Moreover, the “% inhibition n = 2” value in test [8] came to 88%. In addition, the “% inhibition n = 3” value in test [9] worked out at 143%.

B2: 21H3RK IgG2 (antibody, V domains shown)
VH: B1 VH with S31N, S35T, L45P, V53A, G66D, M70V, V83L, R106V, R116Q, C123S
VL: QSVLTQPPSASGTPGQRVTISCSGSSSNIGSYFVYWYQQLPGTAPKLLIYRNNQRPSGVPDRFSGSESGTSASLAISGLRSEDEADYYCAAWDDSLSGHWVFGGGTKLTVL
notes: IgG2
Molecule B2 showed a Kd in test [10] of 0.225 nM. The same molecule returned an IC50 in test [11] of 15.6 nM. Also, the IC50 in test [12] is 0.75 nM. Moreover, in test [13], the dissociation constant Kd was found to be 0.721 nM, the koff was determined as 0.00016 s⁻¹ and the on-rate constant (kon) was determined as 222000 M⁻¹ s⁻¹.

B3: 21H3 IgG2 (antibody, V domains shown)
VH: B1 VH with S31N, S35T, L45P, V53A, G66D, M70V, V83L, R106V, R116Q, C123S
VL: B1 VL with Y33F, D52N, K67E, R77S, D82E, K107R
notes: Formatted as IgG2
With B3, in test [10], the affinity, expressed as Kd, was 0.32 nM. The molecule also gave a half-maximal inhibitory concentration (IC50) in test [11] of 13.5 nM. Besides, in test [12], the IC50 was 0.73 nM. In test [13], this molecule showed a Kd of 0.598 nM, a koff of 0.000155 s⁻¹ and an on-rate constant (kon) of 259000 M⁻¹ s⁻¹.
